Assay [1] deals with T1, transmembrane hCD40 receptor expressed on the surface of CHO cells (CHO-CD40-GFP) (human, UniProt P25942 21-277).
T1 construct: CD40 (TNFR superfamily), human; expressed from a CD40 green fluorescent protein fusion construct (Origene #RG201977) on CHO cells; source: CHO cells, transfected (Lipofectamine 2000), G418-selected and sorted by GFP; on living cells
Nature of the assay: single-molecule force spectroscopy (AFM, SMFS); hCD40L coupled by its His6-tag to the PEG-tris-NTA AFM tip; living CHO cells expressing hCD40; room temperature; HEPES buffer (137 mM NaCl, 2.7 mM KCl, 10 mM HEPES, pH 7.4) with 50 µM NiCl2; contact time and pulling speed varied; Bell-Evans and Markov binding models. The following applies: one partner purified.

Assay [2] has as its target T1, transmembrane hCD40 receptor expressed …. Described as above. The following applies: one partner purified. The source holds these as a separate data set.

T1 sequence (P25942 21-277): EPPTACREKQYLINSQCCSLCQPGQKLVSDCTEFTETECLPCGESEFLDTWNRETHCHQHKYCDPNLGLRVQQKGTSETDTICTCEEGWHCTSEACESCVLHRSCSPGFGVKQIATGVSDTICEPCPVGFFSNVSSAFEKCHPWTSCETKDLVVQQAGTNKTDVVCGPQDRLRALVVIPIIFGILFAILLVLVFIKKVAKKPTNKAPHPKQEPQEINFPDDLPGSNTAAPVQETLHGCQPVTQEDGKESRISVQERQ

B1: Active trimeric human CD40 ligand (hCD40L/hCD154; residues 116G-261L) with N-terminal His6-tag (CDL-H5248) (ligand, UniProt P29965 116-261, looked up)
chain: GDQNPQIAAHVISEASSKTTSVLQWAEKGYYTMSNNLVTLENGKQLTVKRQGLYYIYAQVTFCSNREASSQAPFIASLCLKSPGRFERILLRAANTHSSAKPCGQQSIHLGGVFELQPGASVFVNVTDPSQVSHGTGFTSFGLLKL
notes: CD40 ligand (CD154), human, residues 116G-261L; Used for SMFS (coupled to the tip by its His6-tag through tris-NTA/Ni) and for HS-AFM; also called trimeric hCD40L; source: bought: AcroBiosystems, USA (CDL-H5248); not shown: His6, N-terminal, kept
B1 came in with a dissociation constant (Kd) in assay [1] of 3.2 µM. In assay [2], this molecule came in with a Kd of 3.3 µM, a koff of 0.35 s⁻¹ and a kon of 160000 M⁻¹ s⁻¹.

By Kd is commonly meant a measure of binding affinity in units of concentration. A higher Kd goes with lower affinity. As usually defined, the koff is the first-order rate constant of dissociation. The kon is the rate constant with which the complex forms. Higher therefore signals fast association.

Values taken from paper PMC12276331, “Nanomechanical binding mechanism of ligands drives agonistic activity” (Nature Communications, 2025).
